Measurements as given in patent publication US20240358847A1 (Merck Sharp & Dohme, published 2024).

Tests used:
Human Trop2 [1] = molecular target: T1, Human Trop2 (human, UniProt P09758 27-274, limits assumed); assay: SPR, TROP2 capture, pH 7.4, bivalent mode; KDapp
T1 construct: also called TROP2 protein; trophoblast cell-surface antigen 2
T1 sequence (looked up): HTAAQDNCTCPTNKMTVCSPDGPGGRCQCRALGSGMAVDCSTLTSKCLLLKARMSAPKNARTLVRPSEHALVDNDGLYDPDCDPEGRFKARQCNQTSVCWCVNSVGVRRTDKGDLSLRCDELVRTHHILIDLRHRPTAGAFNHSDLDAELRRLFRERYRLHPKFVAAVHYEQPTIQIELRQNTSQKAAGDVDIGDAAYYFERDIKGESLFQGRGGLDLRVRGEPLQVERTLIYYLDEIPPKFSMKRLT

[2] = molecular target: T2, TROP2 on BxPC-3 and MDA-MB-231-KWL cells (human, UniProt P09758 27-323); assay: on-cell ELISA, BxPC-3 cells (TROP2 high); set-up: unit not given beside the values
T2 construct: whole, on cells
T2 sequence (looked up): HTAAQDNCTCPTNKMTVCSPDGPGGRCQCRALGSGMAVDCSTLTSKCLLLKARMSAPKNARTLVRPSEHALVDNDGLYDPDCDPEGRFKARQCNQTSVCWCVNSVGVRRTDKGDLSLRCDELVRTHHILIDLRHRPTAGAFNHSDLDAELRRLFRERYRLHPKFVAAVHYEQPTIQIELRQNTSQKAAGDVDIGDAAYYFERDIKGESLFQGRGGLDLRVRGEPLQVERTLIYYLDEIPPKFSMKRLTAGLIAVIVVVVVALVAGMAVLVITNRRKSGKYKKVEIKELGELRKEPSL
Description: (§1) Cells were plated in duplicate onto 96-well plates, and primary antibody was diluted in cell culture medium with a starting concentration of 30 μg/mL (200 nM) with a dilution factor of 1:5. […] Data was plotted and analyzed. EC50 ([…]) was measured along with area under the curve (AUC) for each cell line.

[3] = molecular target: T2, TROP2 on BxPC-3 and MDA-MB-231-KWL cells; assay: on-cell ELISA, BxPC-3 vs MDA-MB-231-KWL cells
Description: as §1

[4] = molecular target: T2, TROP2 on BxPC-3 and MDA-MB-231-KWL cells; assay: on-cell ELISA, MDA-MB-231-KWL cells (TROP2 low); set-up: unit not given beside the values
Description: as §1

Human Trop2 [5] = molecular target: T1, Human Trop2; assay: SPR, TROP2 capture, pH 7.4, monovalent mode; KDapp
Human Trop2 [6] = molecular target: T1, Human Trop2; assay: SPR, binding to target

B1: αTROP2 (HC: Sac-S375C) (LC: Sac-Y53D) (antibody, human IgG1, kappa)
heavy: not shown
light: DIQLTQSPSSLSASVGDRVSITCKASQDVSIAVAWYQQKPGKAPKLLIYSASDRYTGVPDRFSGSGSGTDFTLTISSLQPEDFAVYYCQQHYITPLTFGAGTKVEIKRTVAAPSVFIFPPSDEQLKSGTASVVCLLNNFYPREAKVQWKVDNALQSGNSQESVTEQDSKDSTYSLSSTLTLSKADYEKHKVYACEVTHQGLSSPVTKSFNRGEC
Q: Which Kd (Human Trop2 [1]) does the source give for B1 here?
A: 6.9 nM

B2: αTROP2 (HC:Sac) (LC:Sac-Y53D) (antibody, human IgG1, kappa)
heavy: not shown
light: DIQLTQSPSSLSASVGDRVSITCKASQDVSIAVAWYQQKPGKAPKLLIYSASDRYTGVPDRFSGSGSGTDFTLTISSLQPEDFAVYYCQQHYITPLTFGAGTKVEIKRTVAAPSVFIFPPSDEQLKSGTASVVCLLNNFYPREAKVQWKVDNALQSGNSQESVTEQDSKDSTYSLSSTLTLSKADYEKHKVYACEVTHQGLSSPVTKSFNRGEC
Q: How did the “AUC (BxPC-3)” value [2] turn out when B2 was run?
A: 288

Q: And the ΔAUC [3]?
A: 193

Q: What about the “AUC (MDA-MB-231-KWL)” value [4] of the same binder?
A: 95.1

B3: αTROP2 Fab (Fab, V domains shown)
VH: QVQLQQSGSELKKPGASVKVSCKASGYTFTNYGMNWVKQAPGQGLKWMGWINTYTGEPTYTDDFKGRFAFSLDTSVSTAYLQISSLKADDTAVYFCARGGFGSSYWYFDVWGQGSLVTVSS
VL: DIQLTQSPSSLSASVGDRVSITCKASQDVSIAVAWYQQKPGKAPKLLIYSASYRYTGVPDRFSGSGSGTDFTLTISSLQPEDFAVYYCQQHYITPLTFGAGTKVEIK
notes: CH1 and kappa constant parts not specified
Q: How did the Kd (Human Trop2 [5]) turn out when B3 was run?
A: 1.1 nM

B4: αTROP2 (HC:BSM-YTE-S375C) (LC:BSM-Y53D) conjugated to MP-AA-PABC-MMAE (ADC 1) (antibody, human IgG1, kappa, V domains shown)
VH: QVQLLQSGSELKKPGASVKVSCKASGYTFTNYGMNWVRQAPGQGLKWMGWINTYTGEPTYTDDFKGRFSFSLDTSVSQAYLQISSLKAEDTAVYYCARGGFGSSYWYFDVWGQGTLVTVSS
VL: DIQLTQSPSSLSASVGDRVTITCKASQDVSIAVAWYQQKPGKAPKLLIYSASDRYTGVPSRFSGSGSGTDFTLTISSLQPEDFATYYCQQHYITPLTFGPGTKVEIKR
modifications: Cys at position 375 (Eu numbering) conjugated to MP-AA-PABC-MMAE; DAR 1.9
notes: Antibody-drug conjugate; also called αTROP2 (HC:BSM-YTE-S375C-MMAE) (LC:BSM-Y53D)
Q: Does B4 bind (Human Trop2 [6])?
A: binds
